# Key:
# [1] = biological target: PSA (UniProt P07288 25-261); assay: electrochemistry (on-chip bead-bound aptamer); 1 mg/mL; no significant signal (<15%); Buffer C: 100 mM Tris-HCl pH 7.4, 100 mM NaCl, 1 mM MgCl2, 5 mM KCl; room temperature (optimized conditions stated as pH 7.5, 100 mM salt); settings: protein: commercial; label: 5'-ferrocene; 3'-biotin (on streptavidin magnetic beads); hairpin
# [2] = biological target: IL-6 (UniProt P05231 30-212); assay: electrochemistry (on-chip bead-bound aptamer); 1 ng/mL; no significant signal (<15%); Buffer C: 100 mM Tris-HCl pH 7.4, 100 mM NaCl, 1 mM MgCl2, 5 mM KCl; room temperature (optimized conditions stated as pH 7.5, 100 mM salt); settings: protein: commercial; label: 5'-ferrocene; 3'-biotin (on streptavidin magnetic beads); hairpin
# [3] = biological target: TNF-α (UniProt P01375 77-233); assay: as above; settings: protein: commercial; chain copies: 3; label: 5'-ferrocene; 3'-biotin (on streptavidin magnetic beads); hairpin
# [4] = biological target: interferon gamma (IFN-γ) (human, UniProt P01579 24-166); assay: electrochemistry (SWV, on-chip bead-bound aptamer); 1 mM Mg2+, 5 mM K+; from calibration-curve midpoint (100 pg/mL) (so in the source); Buffer C: 100 mM Tris-HCl pH 7.4, 100 mM NaCl, 1 mM MgCl2, 5 mM KCl; room temperature (optimized conditions stated as pH 7.5, 100 mM salt); settings: protein: recombinant; chain copies: 2; label: 5'-ferrocene; 3'-biotin (on streptavidin magnetic beads); hairpin
# interferon gamma (IFN-γ), sequence (P01579 24-166): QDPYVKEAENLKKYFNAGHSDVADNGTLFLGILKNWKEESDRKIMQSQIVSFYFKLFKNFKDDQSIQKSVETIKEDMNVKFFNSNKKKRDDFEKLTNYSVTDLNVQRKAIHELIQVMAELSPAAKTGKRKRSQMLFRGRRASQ
# IL-6, sequence (P05231 30-212): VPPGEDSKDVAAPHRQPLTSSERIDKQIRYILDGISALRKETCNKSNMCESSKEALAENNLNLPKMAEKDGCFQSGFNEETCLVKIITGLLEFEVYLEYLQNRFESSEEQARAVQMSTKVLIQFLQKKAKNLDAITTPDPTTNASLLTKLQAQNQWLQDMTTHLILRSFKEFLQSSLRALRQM
# PSA, sequence (P07288 25-261): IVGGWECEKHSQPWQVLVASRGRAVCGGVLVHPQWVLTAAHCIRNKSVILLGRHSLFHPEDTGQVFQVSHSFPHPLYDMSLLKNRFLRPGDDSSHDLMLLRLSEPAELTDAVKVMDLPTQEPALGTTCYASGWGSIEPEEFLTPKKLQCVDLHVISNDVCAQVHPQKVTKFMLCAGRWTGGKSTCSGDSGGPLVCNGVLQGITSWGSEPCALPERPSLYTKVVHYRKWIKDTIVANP
# TNF-α, sequence (P01375 77-233): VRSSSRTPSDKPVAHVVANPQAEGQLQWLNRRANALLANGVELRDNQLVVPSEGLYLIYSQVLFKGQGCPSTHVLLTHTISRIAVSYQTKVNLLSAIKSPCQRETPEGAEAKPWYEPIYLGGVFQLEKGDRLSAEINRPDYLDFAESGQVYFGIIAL
binder,measurement,setting,value
GGGGTTGGTTGTGTTGGGTGTTGTGTCCAACCCC (structured_DNA) [Fc-labeled IFN-γ hairpin aptamer (MB-aptamer)],binding result,[1],no binding
same,binding result,[2],no binding
same,binding result,[3],no binding
same,Ka,[4],~2.1e+10 M⁻¹
